The target of this experiment is T1, His-EGR1 (mouse, UniProt P08046 1-533).
T1 construct: Early growth response protein 1 (EGR1), mouse; plasmid pET28a-EGR1; also called His-tagged EGR1; source: E. coli BL21(DE3), purified (Ni-NTA)
Kind of experiment: pull-down; GST pull-down with affinity purified proteins; GST bait on GSH magnetic beads (BersinBio GST-pull down kit), His-EGR1 as prey; SDS-PAGE or Western blot. The following applies: both partners purified. (Immunoblotting shows a protein as a band on a membrane.)

T1 sequence (P08046 whole entry): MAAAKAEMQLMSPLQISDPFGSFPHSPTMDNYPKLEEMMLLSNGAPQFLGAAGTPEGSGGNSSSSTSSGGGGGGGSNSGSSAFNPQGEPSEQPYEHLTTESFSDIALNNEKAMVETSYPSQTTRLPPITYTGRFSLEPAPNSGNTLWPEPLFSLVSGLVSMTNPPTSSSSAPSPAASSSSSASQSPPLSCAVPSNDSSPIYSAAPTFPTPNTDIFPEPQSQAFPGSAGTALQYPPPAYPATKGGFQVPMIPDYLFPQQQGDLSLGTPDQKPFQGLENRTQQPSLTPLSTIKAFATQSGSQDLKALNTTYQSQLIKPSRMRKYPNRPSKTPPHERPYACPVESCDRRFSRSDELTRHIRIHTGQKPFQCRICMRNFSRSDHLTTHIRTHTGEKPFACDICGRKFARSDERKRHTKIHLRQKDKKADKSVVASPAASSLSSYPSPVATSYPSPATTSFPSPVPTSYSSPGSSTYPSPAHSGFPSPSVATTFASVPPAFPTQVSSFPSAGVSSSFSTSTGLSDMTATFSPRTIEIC

B1: GST-KAT2B-WT (enzyme, mouse, UniProt Q9JHD1 1-813, looked up)
chain: MAEAGGAGSPALPPAPPHGSPRTLATAAGSSASCGPATAVAAAGTAEGPGGGGSARIAVKKAQLRSAPRAKKLEKLGVYSACKAEESCKCNGWKNPNPSPTPPRGDLQQIIVSLTESCRSCSHALAAHVSHLENVSEEEMDRLLGIVLDVEYLFTCVHKEEDADTKQVYFYLFKLLRKSILQRGKPVVEGSLEKKPPFEKPSIEQGVNNFVQYKFSHLPSKERQTTIELAKMFLNRINYWHLEAPSQRRLRSPNDDISGYKENYTRWLCYCNVPQFCDSLPRYETTKVFGRTLLRSVFTIMRRQLLEQARQEKDKLPLEKRTLILTHFPKFLSMLEEEVYSQNSPIWDQDFLSASSRTSPLGIQTVISPPVTGTALFSSNSTSHEQINGGRTSPGCRGSSGLEANPGEKRKMNNSHAPEEAKRSRVMGDIPVELINEVMSTITDPAGMLGPETNFLSAHSARDEAARLEERRGVIEFHVVGNSLNQKPNKKILMWLVGLQNVFSHQLPRMPKEYITRLVFDPKHKTLALIKDGRVIGGICFRMFPSQGFTEIVFCAVTSNEQVKGYGTHLMNHLKEYHIKHEILNFLTYADEYAIGYFKKQGFSKEIKIPKTKYVGYIKDYEGATLMGCELNPQIPYTEFSVIIKKQKEIIKKLIERKQAQIRKVYPGLSCFKDGVRQIPIESIPGIRETGWKPSGKEKSKEPKDPEQLYSTLKNILQQVKNHPNAWPFMEPVKRTEAPGYYEVIRFPMDLKTMSERLRNRYYVSKKLFMADLQRVFTNCKEYNPPESEYYKCASILEKFFFSKIKEAGLIDK
notes: Histone acetyltransferase KAT2B, mouse; plasmid pGEX-4T-1-KAT2B; source: E. coli BL21(DE3), purified (glutathione column)
As to B1, the binding result is “binds”.

The values are drawn from article PMC11831459, “Lactylation of Histone H3k18 and Egr1 Promotes Endothelial Glycocalyx Degradation in Sepsis‐Induced Acute Lung Injury” (Advanced Science, 2024).
